Laboratory results from patent US20260049140A1 (JANUX THERAPEUTICS, published 2026).
Ends that are not written are not given here.

Key:
TCE-19 = target: T1, TCE-19; test: competition ELISA, peptide titrated vs TCE binding to captured CD3
T1 construct: anti-CD3 scFv W233A; anti-TROP2 Fab wt; also called 3091

TCE-1 = target: T2, TCE-1; test: competition ELISA: peptide titrated and pre-incubated with a constant concentration of TCE-1; TCE-1 bound to plate-captured biotinylated CD3 is detected (blocked ligand: CD3)
T2 construct: anti-CD3 scFv wt fused to anti-TROP2 Fab HC wt

human CD3ε-biotin [1] = target: T3, human CD3ε-biotin (human, UniProt P07766 23-126, limits assumed, biotinylated (site not stated)); test: BLI (Octet), human CD3ε-biotin 10 nM on sensor, 50 nM TCE
T3 construct: also called CD3E-bio; CD3E-biotin

human TROP2-biotin = target: T4, human TROP2-biotin (human, UniProt P09758 27-274, limits assumed, biotinylated (site not stated)); test: ELISA, biotinylated TROP2 captured on neutravidin plate, TCE titrated
T4 construct: also called hTROP2-Biotin; Biotinylated TROP2
T4 sequence (looked up): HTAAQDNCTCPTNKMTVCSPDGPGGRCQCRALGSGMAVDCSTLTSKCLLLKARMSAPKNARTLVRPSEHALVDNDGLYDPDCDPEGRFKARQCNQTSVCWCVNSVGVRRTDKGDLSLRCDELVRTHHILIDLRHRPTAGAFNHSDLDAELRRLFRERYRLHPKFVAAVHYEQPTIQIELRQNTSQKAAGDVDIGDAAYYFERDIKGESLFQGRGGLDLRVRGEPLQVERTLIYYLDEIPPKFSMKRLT

Cyno CD3 = target: T5, Cyno CD3 (Antigen was biotinylated for capture on the plate (per card); site of biotin and any vendor tag not stated in the passages seen.); test: Cyno CD3 binding ELISA, TCE titrated
T5 construct: also called cynomolgus CD3
T5 chain: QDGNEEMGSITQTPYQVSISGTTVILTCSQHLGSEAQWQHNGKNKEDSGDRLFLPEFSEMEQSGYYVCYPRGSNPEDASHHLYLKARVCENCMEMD

human CD3ε-biotin [2] = target: T3, human CD3ε-biotin; test: BLI (Octet), summary table
TCE-15 = target: T6, TCE-15; test: competition ELISA, peptide titrated vs TCE binding to captured CD3
T6 construct: anti-CD3 scFv W112A; anti-TROP2 Fab wt; also called 3087

VYCGPEFDESVGCM (cysteine pairing not given here; also: biotinylated when captured in ELISA, also called 1443) [Peptide-3]
IC50 (TCE-19): > 100 µM

B1: Peptide-8 (peptide)
peptide: AYCGPEFDESVGCM
modifications: cysteine pairing not given here; also: biotinylated when captured in binding ELISA
notes: also called 1555
IC50 (TCE-19): > 100 µM
IC50 (read off the curve) (TCE-1): ~0.4 µM

B2: Peptide-9 (peptide)
peptide: VYCGPEFDESVGCA
modifications: cysteine pairing not given here; also: biotinylated when captured in binding ELISA
notes: also called 1566
IC50 (TCE-19): > 100 µM

B3: TCE-14 (anti-CD3 scFv Y111A; anti-TROP2 HC wt) (bispecific antibody)
light: DIQLTQSPSSLSASVGDRVSITCKASQDVSIAVAWYQQKPGKAPKLLIYSASYRYTGVPDRFSGSGSGTDFTLTISSLQPEDFAVYYCQQHYITPLTFGAGTKVEIKRTVAAPSVFIFPPSDEQLKSGTASVVCLLNNFYPREAKVQWKVDNALQSGNSQESVTEQDSKDSTYSLSSTLTLSKADYEKHKVYACEVTHQGLSSPVTKSFNRGEC
heavy: not shown
notes: scFv-Fab; the entry already carries the mutation; also called 3086
Response (human CD3ε-biotin [1]): -0.0009

B4: TCE-29 (anti-CD3 scFv wt; anti-TROP2 (F108A) HC) (bispecific antibody)
light: DIQLTQSPSSLSASVGDRVSITCKASQDVSIAVAWYQQKPGKAPKLLIYSASYRYTGVPDRFSGSGSGTDFTLTISSLQPEDFAVYYCQQHYITPLTFGAGTKVEIKRTVAAPSVFIFPPSDEQLKSGTASVVCLLNNFYPREAKVQWKVDNALQSGNSQESVTEQDSKDSTYSLSSTLTLSKADYEKHKVYACEVTHQGLSSPVTKSFNRGEC
heavy: not shown
notes: scFv-Fab; the entry already carries the mutation
EC50 (human TROP2-biotin): 1.15 nM
EC50 (Cyno CD3): 0.184 nM

B5: TCE-22 (anti-CD3 scFv N236A; anti-TROP2 HC wt) (bispecific antibody)
light: DIQLTQSPSSLSASVGDRVSITCKASQDVSIAVAWYQQKPGKAPKLLIYSASYRYTGVPDRFSGSGSGTDFTLTISSLQPEDFAVYYCQQHYITPLTFGAGTKVEIKRTVAAPSVFIFPPSDEQLKSGTASVVCLLNNFYPREAKVQWKVDNALQSGNSQESVTEQDSKDSTYSLSSTLTLSKADYEKHKVYACEVTHQGLSSPVTKSFNRGEC
heavy: not shown
notes: as for B4
Response (human CD3ε-biotin [1]): 0.65
CD3 Octet response (human CD3ε-biotin [2]): 0.65
CD3 t1/2 (human CD3ε-biotin [2]): 2.45 min

B6: TCE-19 (anti-CD3 scFv W233A; anti-TROP2 HC wt) (bispecific antibody)
light: DIQLTQSPSSLSASVGDRVSITCKASQDVSIAVAWYQQKPGKAPKLLIYSASYRYTGVPDRFSGSGSGTDFTLTISSLQPEDFAVYYCQQHYITPLTFGAGTKVEIKRTVAAPSVFIFPPSDEQLKSGTASVVCLLNNFYPREAKVQWKVDNALQSGNSQESVTEQDSKDSTYSLSSTLTLSKADYEKHKVYACEVTHQGLSSPVTKSFNRGEC
heavy: not shown
notes: scFv-Fab; the entry already carries the mutation; also called 3091
Kd (human CD3ε-biotin [1]): 12.3 nM
Response (human CD3ε-biotin [1]): 0.414
CD3 t1/2 (human CD3ε-biotin [2]): 6.45 min
Kd (human CD3ε-biotin [2]): 12.3 nM

B7: TCE-21 (anti-CD3 scFv S235A; anti-TROP2 HC wt) (bispecific antibody)
light: DIQLTQSPSSLSASVGDRVSITCKASQDVSIAVAWYQQKPGKAPKLLIYSASYRYTGVPDRFSGSGSGTDFTLTISSLQPEDFAVYYCQQHYITPLTFGAGTKVEIKRTVAAPSVFIFPPSDEQLKSGTASVVCLLNNFYPREAKVQWKVDNALQSGNSQESVTEQDSKDSTYSLSSTLTLSKADYEKHKVYACEVTHQGLSSPVTKSFNRGEC
heavy: not shown
notes: as for B4
Kd (human CD3ε-biotin [1]): 3.41 nM
Response (human CD3ε-biotin [1]): 0.682
CD3 Octet response (human CD3ε-biotin [2]): 0.68
Kd (human CD3ε-biotin [2]): 3.41 nM

B8: TCE-20 (anti-CD3 scFv Y234A; anti-TROP2 HC wt) (bispecific antibody)
light: DIQLTQSPSSLSASVGDRVSITCKASQDVSIAVAWYQQKPGKAPKLLIYSASYRYTGVPDRFSGSGSGTDFTLTISSLQPEDFAVYYCQQHYITPLTFGAGTKVEIKRTVAAPSVFIFPPSDEQLKSGTASVVCLLNNFYPREAKVQWKVDNALQSGNSQESVTEQDSKDSTYSLSSTLTLSKADYEKHKVYACEVTHQGLSSPVTKSFNRGEC
heavy: not shown
notes: as for B4
Kd (human CD3ε-biotin [1]): 11.1 nM
Response (human CD3ε-biotin [1]): 0.674
CD3 Octet response (human CD3ε-biotin [2]): 0.67
CD3 t1/2 (human CD3ε-biotin [2]): 1.66 min
Kd (human CD3ε-biotin [2]): 11.1 nM

B9: TCE-23 (anti-CD3 scFv R237A; anti-TROP2 HC wt) (bispecific antibody)
light: DIQLTQSPSSLSASVGDRVSITCKASQDVSIAVAWYQQKPGKAPKLLIYSASYRYTGVPDRFSGSGSGTDFTLTISSLQPEDFAVYYCQQHYITPLTFGAGTKVEIKRTVAAPSVFIFPPSDEQLKSGTASVVCLLNNFYPREAKVQWKVDNALQSGNSQESVTEQDSKDSTYSLSSTLTLSKADYEKHKVYACEVTHQGLSSPVTKSFNRGEC
heavy: not shown
notes: as for B4
Kd (human CD3ε-biotin [1]): 6.51 nM
Response (human CD3ε-biotin [1]): 0.728
CD3 Octet response (human CD3ε-biotin [2]): 0.73
CD3 t1/2 (human CD3ε-biotin [2]): 2.67 min
Kd (human CD3ε-biotin [2]): 6.51 nM

B10: TCE-17 (anti-CD3 scFv V231A; anti-TROP2 HC wt) (bispecific antibody)
light: DIQLTQSPSSLSASVGDRVSITCKASQDVSIAVAWYQQKPGKAPKLLIYSASYRYTGVPDRFSGSGSGTDFTLTISSLQPEDFAVYYCQQHYITPLTFGAGTKVEIKRTVAAPSVFIFPPSDEQLKSGTASVVCLLNNFYPREAKVQWKVDNALQSGNSQESVTEQDSKDSTYSLSSTLTLSKADYEKHKVYACEVTHQGLSSPVTKSFNRGEC
heavy: not shown
notes: as for B4
Kd (human CD3ε-biotin [1]): 6.26 nM
CD3 t1/2 (human CD3ε-biotin [2]): 2.96 min
Kd (human CD3ε-biotin [2]): 6.26 nM

B11: TCE-25 (anti-CD3 scFv V239A; anti-TROP2 HC wt) (bispecific antibody)
light: DIQLTQSPSSLSASVGDRVSITCKASQDVSIAVAWYQQKPGKAPKLLIYSASYRYTGVPDRFSGSGSGTDFTLTISSLQPEDFAVYYCQQHYITPLTFGAGTKVEIKRTVAAPSVFIFPPSDEQLKSGTASVVCLLNNFYPREAKVQWKVDNALQSGNSQESVTEQDSKDSTYSLSSTLTLSKADYEKHKVYACEVTHQGLSSPVTKSFNRGEC
heavy: not shown
notes: as for B4
Response (human CD3ε-biotin [1]): 0.742
CD3 Octet response (human CD3ε-biotin [2]): 0.74
CD3 t1/2 (human CD3ε-biotin [2]): 4.26 min

B12: TCE-18 (anti-CD3 scFv L232A; anti-TROP2 HC wt) (bispecific antibody)
light: DIQLTQSPSSLSASVGDRVSITCKASQDVSIAVAWYQQKPGKAPKLLIYSASYRYTGVPDRFSGSGSGTDFTLTISSLQPEDFAVYYCQQHYITPLTFGAGTKVEIKRTVAAPSVFIFPPSDEQLKSGTASVVCLLNNFYPREAKVQWKVDNALQSGNSQESVTEQDSKDSTYSLSSTLTLSKADYEKHKVYACEVTHQGLSSPVTKSFNRGEC
heavy: not shown
notes: as for B4
Kd (human CD3ε-biotin [1]): 8.39 nM
Response (human CD3ε-biotin [1]): 0.663
CD3 Octet response (human CD3ε-biotin [2]): 0.66
CD3 t1/2 (human CD3ε-biotin [2]): 2.64 min
Kd (human CD3ε-biotin [2]): 8.39 nM

B13: TCE-35 (anti-CD3 scFv wt; anti-TROP2 (D109A) HC) (bispecific antibody)
light: DIQLTQSPSSLSASVGDRVSITCKASQDVSIAVAWYQQKPGKAPKLLIYSASYRYTGVPDRFSGSGSGTDFTLTISSLQPEDFAVYYCQQHYITPLTFGAGTKVEIKRTVAAPSVFIFPPSDEQLKSGTASVVCLLNNFYPREAKVQWKVDNALQSGNSQESVTEQDSKDSTYSLSSTLTLSKADYEKHKVYACEVTHQGLSSPVTKSFNRGEC
heavy: not shown
notes: as for B4
EC50 (human TROP2-biotin): 1.07 nM

B14: TCE-30 (anti-CD3 scFv H101A; anti-TROP2 (F108A) HC) (bispecific antibody)
light: DIQLTQSPSSLSASVGDRVSITCKASQDVSIAVAWYQQKPGKAPKLLIYSASYRYTGVPDRFSGSGSGTDFTLTISSLQPEDFAVYYCQQHYITPLTFGAGTKVEIKRTVAAPSVFIFPPSDEQLKSGTASVVCLLNNFYPREAKVQWKVDNALQSGNSQESVTEQDSKDSTYSLSSTLTLSKADYEKHKVYACEVTHQGLSSPVTKSFNRGEC
heavy: not shown
notes: scFv-Fab; the entry already carries the mutations
EC50 (human TROP2-biotin): 1.28 nM

B15: TCE-24 (anti-CD3 scFv W238A; anti-TROP2 HC wt) (bispecific antibody)
light: DIQLTQSPSSLSASVGDRVSITCKASQDVSIAVAWYQQKPGKAPKLLIYSASYRYTGVPDRFSGSGSGTDFTLTISSLQPEDFAVYYCQQHYITPLTFGAGTKVEIKRTVAAPSVFIFPPSDEQLKSGTASVVCLLNNFYPREAKVQWKVDNALQSGNSQESVTEQDSKDSTYSLSSTLTLSKADYEKHKVYACEVTHQGLSSPVTKSFNRGEC
heavy: not shown
notes: scFv-Fab; the entry already carries the mutation; also called 3096
Kd (human CD3ε-biotin [1]): 31 nM
Response (human CD3ε-biotin [1]): 0.0683
CD3 Octet response (human CD3ε-biotin [2]): 0.07
Kd (human CD3ε-biotin [2]): 31 nM

B16: TCE-28 (anti-CD3 scFv N30Q, I109V, G172A, V231A; anti-TROP2 HC wt) (bispecific antibody)
light: DIQLTQSPSSLSASVGDRVSITCKASQDVSIAVAWYQQKPGKAPKLLIYSASYRYTGVPDRFSGSGSGTDFTLTISSLQPEDFAVYYCQQHYITPLTFGAGTKVEIKRTVAAPSVFIFPPSDEQLKSGTASVVCLLNNFYPREAKVQWKVDNALQSGNSQESVTEQDSKDSTYSLSSTLTLSKADYEKHKVYACEVTHQGLSSPVTKSFNRGEC
heavy: not shown
notes: scFv-Fab; the entry already carries the mutations; also called 3100
Kd (human CD3ε-biotin [1]): 9.11 nM
Response (human CD3ε-biotin [1]): 0.931

GSQCLGPEWEVCPY (cysteine pairing not given here; also: biotinylated when captured in ELISA, also called 1419) [Peptide-2]
IC50 (TCE-15): > 100 µM
IC50 (TCE-19): > 100 µM
IC50 (read off the curve) (TCE-1): ~0.3 µM

ASQCLGPEWEVCPY (cysteine pairing not given here; also: biotinylated when captured in ELISA, also called 1594) [Peptide-10]
IC50 (TCE-19): > 100 µM
IC50 (read off the curve) (TCE-1): ~0.2 µM
